Assay results published in the RNAGym collection of RNA variant scans (doi:10.1021/acssynbio.7b00057).

B1: Pistol ribozyme (parent)
chain: GGGUCGUUGUUCCAUAAUCGCGUGGAUAUGGCACGCAAGUUUCUACCGGGCACCGUAAAUGUCCGACUGGAGCCGUUCGGGCGGCUAUAAACAGACCUCAGGCCCGAAGCGUGGCGGCACCUGCCGCCGGUGGUAAAAAAGAUCGGAAGAGCACACGUCU

Variants of: B1
Experiment: aptazyme ON/OFF ratio, guanine; higher = stronger switching; co-transcriptional cleavage with and without guanine

Variant | aptazyme ON/OFF ratio
GGGUCGACAGUGUAUAAUCGCGUGGAUAUGGCACGCAAGUUUCUACCGGGCACCGUAAAUGUCCGACUGGAGCCGUUCGGGCGGCUAUAAACAGACCUCAGGCCCGAAGCGUGGCGGCACCUGCCGCCGGUGGUAAAAAAGAUCGGAAGAGCACACGUCU | 1.31
GGGUCGACAGUGGAUAAUCGCGUGGAUAUGGCACGCAAGUUUCUACCGGGCACCGUAAAUGUCCGACUGGAGCCGUUCGGGCGGCUAUAAACAGACCUCAGGCCCGAAGCGUGGCGGCACCUGCCGCCGGUGGUAAAAAAGAUCGGAAGAGCACACGUCU | 1.2
GGGUCGACACCUUAUAAUCGCGUGGAUAUGGCACGCAAGUUUCUACCGGGCACCGUAAAUGUCCGACUGGAGCCGUUCGGGCGGCUAUAAACAGACCUCAGGCCCGAAGCGUGGCGGCACCUGCCGCCGGUGGUAAAAAAGAUCGGAAGAGCACACGUCU | 1.04
GGGUCGACACCUGAUAAUCGCGUGGAUAUGGCACGCAAGUUUCUACCGGGCACCGUAAAUGUCCGACUGGAGCCGUUCGGGCGGCUAUAAACAGACCUCAGGCCCGAAGCGUGGCGGCACCUGCCGCCGGUGGUAAAAAAGAUCGGAAGAGCACACGUCU | 1.03
GGGUCGACACCUAAUAAUCGCGUGGAUAUGGCACGCAAGUUUCUACCGGGCACCGUAAAUGUCCGACUGGAGCCGUUCGGGCGGCUAUAAACAGACCUCAGGCCCGAAGCGUGGCGGCACCUGCCGCCGGUGGUAAAAAAGAUCGGAAGAGCACACGUCU | 1.05
GGGUCGACACCCAAUAAUCGCGUGGAUAUGGCACGCAAGUUUCUACCGGGCACCGUAAAUGUCCGACUGGAGCCGUUCGGGCGGCUAUAAACAGACCUCAGGCCCGAAGCGUGGCGGCACCUGCCGCCGGUGGUAAAAAAGAUCGGAAGAGCACACGUCU | 1.04
GGGUCGACACCCUAUAAUCGCGUGGAUAUGGCACGCAAGUUUCUACCGGGCACCGUAAAUGUCCGACUGGAGCCGUUCGGGCGGCUAUAAACAGACCUCAGGCCCGAAGCGUGGCGGCACCUGCCGCCGGUGGUAAAAAAGAUCGGAAGAGCACACGUCU | 1.02
GGGUCGACACCCGAUAAUCGCGUGGAUAUGGCACGCAAGUUUCUACCGGGCACCGUAAAUGUCCGACUGGAGCCGUUCGGGCGGCUAUAAACAGACCUCAGGCCCGAAGCGUGGCGGCACCUGCCGCCGGUGGUAAAAAAGAUCGGAAGAGCACACGUCU | 1
GGGUCGACACCUCAUAAUCGCGUGGAUAUGGCACGCAAGUUUCUACCGGGCACCGUAAAUGUCCGACUGGAGCCGUUCGGGCGGCUAUAAACAGACCUCAGGCCCGAAGCGUGGCGGCACCUGCCGCCGGUGGUAAAAAAGAUCGGAAGAGCACACGUCU | 1.04
GGGUCGACACGGUAUAAUCGCGUGGAUAUGGCACGCAAGUUUCUACCGGGCACCGUAAAUGUCCGACUGGAGCCGUUCGGGCGGCUAUAAACAGACCUCAGGCCCGAAGCGUGGCGGCACCUGCCGCCGGUGGUAAAAAAGAUCGGAAGAGCACACGUCU | 1.1
GGGUCGACACGGGAUAAUCGCGUGGAUAUGGCACGCAAGUUUCUACCGGGCACCGUAAAUGUCCGACUGGAGCCGUUCGGGCGGCUAUAAACAGACCUCAGGCCCGAAGCGUGGCGGCACCUGCCGCCGGUGGUAAAAAAGAUCGGAAGAGCACACGUCU | 1.29
GGGUCGACACGGAAUAAUCGCGUGGAUAUGGCACGCAAGUUUCUACCGGGCACCGUAAAUGUCCGACUGGAGCCGUUCGGGCGGCUAUAAACAGACCUCAGGCCCGAAGCGUGGCGGCACCUGCCGCCGGUGGUAAAAAAGAUCGGAAGAGCACACGUCU | 1.23
GGGUCGACACGAUAUAAUCGCGUGGAUAUGGCACGCAAGUUUCUACCGGGCACCGUAAAUGUCCGACUGGAGCCGUUCGGGCGGCUAUAAACAGACCUCAGGCCCGAAGCGUGGCGGCACCUGCCGCCGGUGGUAAAAAAGAUCGGAAGAGCACACGUCU | 1.14
GGGUCGACACGAAAUAAUCGCGUGGAUAUGGCACGCAAGUUUCUACCGGGCACCGUAAAUGUCCGACUGGAGCCGUUCGGGCGGCUAUAAACAGACCUCAGGCCCGAAGCGUGGCGGCACCUGCCGCCGGUGGUAAAAAAGAUCGGAAGAGCACACGUCU | 1.12
GGGUCGACACGAGAUAAUCGCGUGGAUAUGGCACGCAAGUUUCUACCGGGCACCGUAAAUGUCCGACUGGAGCCGUUCGGGCGGCUAUAAACAGACCUCAGGCCCGAAGCGUGGCGGCACCUGCCGCCGGUGGUAAAAAAGAUCGGAAGAGCACACGUCU | 1.33
GGGUCGACACGGCAUAAUCGCGUGGAUAUGGCACGCAAGUUUCUACCGGGCACCGUAAAUGUCCGACUGGAGCCGUUCGGGCGGCUAUAAACAGACCUCAGGCCCGAAGCGUGGCGGCACCUGCCGCCGGUGGUAAAAAAGAUCGGAAGAGCACACGUCU | 1.27
GGGUCGACACGUCAUAAUCGCGUGGAUAUGGCACGCAAGUUUCUACCGGGCACCGUAAAUGUCCGACUGGAGCCGUUCGGGCGGCUAUAAACAGACCUCAGGCCCGAAGCGUGGCGGCACCUGCCGCCGGUGGUAAAAAAGAUCGGAAGAGCACACGUCU | 1.23
GGGUCGACACGACAUAAUCGCGUGGAUAUGGCACGCAAGUUUCUACCGGGCACCGUAAAUGUCCGACUGGAGCCGUUCGGGCGGCUAUAAACAGACCUCAGGCCCGAAGCGUGGCGGCACCUGCCGCCGGUGGUAAAAAAGAUCGGAAGAGCACACGUCU | 1.09
